Results: article PMC4608255, “ATP binding to neighbouring subunits and intersubunit allosteric coupling underlie proteasomal ATPase function” (Nature Communications, 2015)
Changes are numbered by the printed parent chain.

T1: PAN (Methanocaldococcus jannaschii, UniProt Q58576)
T1 construct: recombinant from pRSETA, homohexamer
T1 sequence (Q58576 1-430): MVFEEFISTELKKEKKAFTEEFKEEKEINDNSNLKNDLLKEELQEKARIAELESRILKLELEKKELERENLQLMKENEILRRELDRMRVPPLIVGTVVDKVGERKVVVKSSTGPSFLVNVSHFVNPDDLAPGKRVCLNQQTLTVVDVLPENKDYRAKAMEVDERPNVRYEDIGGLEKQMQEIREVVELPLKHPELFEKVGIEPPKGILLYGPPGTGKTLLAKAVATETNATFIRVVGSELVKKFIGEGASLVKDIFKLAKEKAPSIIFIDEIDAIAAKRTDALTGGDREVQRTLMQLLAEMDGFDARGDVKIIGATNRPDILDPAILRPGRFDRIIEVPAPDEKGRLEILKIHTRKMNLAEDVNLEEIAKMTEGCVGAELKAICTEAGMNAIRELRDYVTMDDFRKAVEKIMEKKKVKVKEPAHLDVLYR

B1: PAN wild type (enzyme)
chain: T1 sequence (Q58576 1-430)
B2: PAN-R331A (enzyme, UniProt Q58576 1-430, looked up)
chain: T1 sequence (Q58576 1-430) with R331A
notes: PAN, archaeal proteasomal ATPase; Vector pRSETA; source: expression vector in pRSETA made by site-directed mutagenesis
B3: PAN-R328/331A (enzyme, UniProt Q58576 1-430, looked up)
chain: T1 sequence (Q58576 1-430) with R328A, R331A
notes: PAN, archaeal proteasomal ATPase; Vector pRSETA; also called double mutant; double-arginine mutant; source: expression vector in pRSETA made by site-directed mutagenesis
B4: PAN-R328A (enzyme, UniProt Q58576 1-430, looked up)
chain: T1 sequence (Q58576 1-430) with R328A
notes: as for B2

Columns and labels:
[1] = target: T1, PAN; test: NADH-coupled ATPase assay, Hill equation; assay type: biochemical; settings: 50 mM Tris-HCl pH 7.5, 5 mM MgCl2; 100 nM PAN
From the text: NADH-coupled ATPase assay, Hill equation on PAN | Vmax, KM and Hill coefficient (h) values were obtained by nonlinear regression analysis

[2] = target: archaeal 20S proteasome (UniProt P25156)
archaeal 20S proteasome, sequence (P25156 whole entry, chain 1 of 2): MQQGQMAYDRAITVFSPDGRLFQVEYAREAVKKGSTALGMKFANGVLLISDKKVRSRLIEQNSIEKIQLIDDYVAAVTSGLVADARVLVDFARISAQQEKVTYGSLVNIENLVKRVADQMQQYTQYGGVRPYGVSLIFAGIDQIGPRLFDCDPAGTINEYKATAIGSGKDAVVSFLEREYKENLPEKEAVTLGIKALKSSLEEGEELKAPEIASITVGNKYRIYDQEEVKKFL
archaeal 20S proteasome, sequence (chain, as listed by the source, chain 2 of 2): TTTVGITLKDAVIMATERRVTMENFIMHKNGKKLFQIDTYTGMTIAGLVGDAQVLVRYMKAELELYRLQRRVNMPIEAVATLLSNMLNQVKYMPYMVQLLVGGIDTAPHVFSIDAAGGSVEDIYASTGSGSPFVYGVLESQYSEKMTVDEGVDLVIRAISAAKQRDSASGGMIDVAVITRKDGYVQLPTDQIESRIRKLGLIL

[3] = target: the molecule itself; test: native gel or EMSA; native gel of the PAN mutants; conditions not given

Molecule | stoichiometry N [3] | also measured
Nc1ncnc2c1ncn2[C@@H]1O[C@H](COP(=O)(O)OP(=O)(O)OP(=O)(O)O)[C@@H](O)[C@H]1O [ATP] |  | Km [1]: 261 ± 8 µM
B1 |  | LFP peptide hydrolysis by the 20S (20 nM) with PAN (80 nM) and 10 μM ATPγS (gate opening) [2]: 9 fold
B2 | 6 | 
B3 | 6 | 
B4 | 6 | 
